Results from the supplement of paper PMC10567573.

B1: KCNAB2 (parent)
chain: IPPYSRASLKGYQWLKDKILSEEG

Variants of: B1
Assay: protein stability index of a GFP-peptide fusion (GPS, HEK-293T) (PSI 1-6); higher = more stable
Settings: c terminus: a fixed tail appended
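Note: lentivirally expressed fusions sorted by FACS into six bins by GFP to DsRed ratio, PSI derived from sequencing read proportions per bin multiplied by bin number.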

Variant | protein stability index
IPPYSRASLKGYQWLKDKILCEEG [S21C] | 2.42
IPPYSRASLKGYQWLKDKILLEEG [S21L] | 2.19
IPPYSRASLKGYQWLKDKILQEEG [S21Q] | 3.31
IPPYSRASLKGYQWLKDKILDEEG [S21D] | 3.56
IPPYSRASLKGYQWLKDKILHEEG [S21H] | 2.12
IPPYSRASLKGYQWLKDKILAEEG [S21A] | 2.8
IPPYSRASLKGYQWLKDKILREEG [S21R] | 1.68
IPPYSRASLKGYQWLKDKILKEEG [S21K] | 3.24
IPPYSRASLKGYQWLKDKILNEEG [S21N] | 2.02
IPPYSRASLKGYQWLKDKILSEEV [G24V] | 1.77
IPPYSRASLKGYQWLKDKILSEEY [G24Y] | 1.48
IPPYSRASLKGYQWLKDKILSEEC [G24C] | 2.06
IPPYSRASLKGYQWLKDKILSEET [G24T] | 1.99
IPPYSRASLKGYQWLKDKILSEER [G24R] | 1.47
IPPYSRASLKGYQWLKDKILSEEP [G24P] | 1.95
IPPYSRASLKGYQWLKDKILSEEL [G24L] | 1.43
IPPYSRASLKGYQWLKDKILSEEF [G24F] | 1.99
IPPYSRASLKGYQWLKDKILSEEN [G24N] | 2.05
IPPYSRASFKGYQWLKDKILSEEG [L9F] | 2.61
IPPYSRASWKGYQWLKDKILSEEG [L9W] | 2.22
IPPYSRASGKGYQWLKDKILSEEG [L9G] | 3.22
IPPYSRASYKGYQWLKDKILSEEG [L9Y] | 2.4
IPPYSRASDKGYQWLKDKILSEEG [L9D] | 2.44
IPPYSRASKKGYQWLKDKILSEEG [L9K] | 2.53

Variant | protein stability index
IPPYSRASHKGYQWLKDKILSEEG [L9H] | 2.38
IPPYSRASAKGYQWLKDKILSEEG [L9A] | 2.56
IPPYSRASLKGYQWDKDKILSEEG [L15D] | 4.13
IPPYSRASLKGYQWEKDKILSEEG [L15E] | 3.19
IPPYSRASLKGYQWIKDKILSEEG [L15I] | 2.11
IPPYSRASLKGYQWPKDKILSEEG [L15P] | 3.61
IPPYSRASLKGYQWFKDKILSEEG [L15F] | 2.59
IPPYSRASLKGYQWSKDKILSEEG [L15S] | 3.53
IPPYSRASLKGYQWHKDKILSEEG [L15H] | 3.73
IPPYSRASLKGYQWRKDKILSEEG [L15R] | 2.37
IPPYSRASLKGYQWLKDKILSEVG [E23V] | 2.5
IPPYSRASLKGYQWLKDKILSESG [E23S] | 4.83
IPPYSRASLKGYQWLKDKILSENG [E23N] | 2
IPPYSRASLKGYQWLKDKILSEFG [E23F] | 3.45
IPPYSRASLKGYQWLKDKILSEYG [E23Y] | 2.18
IPPYSRASLKGYQWLKDKILSEMG [E23M] | 2.31
IPPYSRASLKGYQWLKDKILSEIG [E23I] | 2.62
IPPYSRASLKGYQWLKDKILSEKG [E23K] | 1.84
IPPFSRASLKGYQWLKDKILSEEG [Y4F] | 2.14
IPPRSRASLKGYQWLKDKILSEEG [Y4R] | 2.35
IPPLSRASLKGYQWLKDKILSEEG [Y4L] | 1.34
IPPVSRASLKGYQWLKDKILSEEG [Y4V] | 2.49
IPPSSRASLKGYQWLKDKILSEEG [Y4S] | 2.92
IPPNSRASLKGYQWLKDKILSEEG [Y4N] | 3.1

Variant | protein stability index
IPPGSRASLKGYQWLKDKILSEEG [Y4G] | 2.76
IPPKSRASLKGYQWLKDKILSEEG [Y4K] | 2.77
IPPTSRASLKGYQWLKDKILSEEG [Y4T] | 2.33
IPLYSRASLKGYQWLKDKILSEEG [P3L] | 3.1
IPFYSRASLKGYQWLKDKILSEEG [P3F] | 2.85
IPTYSRASLKGYQWLKDKILSEEG [P3T] | 2.06
IPNYSRASLKGYQWLKDKILSEEG [P3N] | 2.48
IPDYSRASLKGYQWLKDKILSEEG [P3D] | 3.1
IPKYSRASLKGYQWLKDKILSEEG [P3K] | 2.75
IPVYSRASLKGYQWLKDKILSEEG [P3V] | 2.3
IPEYSRASLKGYQWLKDKILSEEG [P3E] | 2.5
IPSYSRASLKGYQWLKDKILSEEG [P3S] | 2.62
IPYYSRASLKGYQWLKDKILSEEG [P3Y] | 2.53
IYPYSRASLKGYQWLKDKILSEEG [P2Y] | 2.56
IAPYSRASLKGYQWLKDKILSEEG [P2A] | 1.52
IQPYSRASLKGYQWLKDKILSEEG [P2Q] | 2.92
ITPYSRASLKGYQWLKDKILSEEG [P2T] | 1.62
IEPYSRASLKGYQWLKDKILSEEG [P2E] | 2.87
ILPYSRASLKGYQWLKDKILSEEG [P2L] | 2.04
IIPYSRASLKGYQWLKDKILSEEG [P2I] | 1.25
IKPYSRASLKGYQWLKDKILSEEG [P2K] | 2.02
IVPYSRASLKGYQWLKDKILSEEG [P2V] | 3.44
IDPYSRASLKGYQWLKDKILSEEG [P2D] | 1.7
IPPYSRASLKGQQWLKDKILSEEG [Y12Q] | 3.18

Variant | protein stability index
IPPYSRASLKGHQWLKDKILSEEG [Y12H] | 3.62
IPPYSRASLKGDQWLKDKILSEEG [Y12D] | 3.97
IPPYSRASLKGAQWLKDKILSEEG [Y12A] | 3.34
IPPYSRASLKGIQWLKDKILSEEG [Y12I] | 2.45
IPPYSRASLKGWQWLKDKILSEEG [Y12W] | 1.32
IPPYSRASLKGRQWLKDKILSEEG [Y12R] | 3.44
IPPYSRASLKGTQWLKDKILSEEG [Y12T] | 3.81
IPPYSRASLKGSQWLKDKILSEEG [Y12S] | 4.02
IPPYSRASLKGFQWLKDKILSEEG [Y12F] | 2.84
IPPYSYASLKGYQWLKDKILSEEG [R6Y] | 1.6
IPPYSLASLKGYQWLKDKILSEEG [R6L] | 2.45
IPPYSCASLKGYQWLKDKILSEEG [R6C] | 1.94
IPPYSSASLKGYQWLKDKILSEEG [R6S] | 3.06
IPPYSFASLKGYQWLKDKILSEEG [R6F] | 2.16
FPPYSRASLKGYQWLKDKILSEEG [I1F] | 2.15
CPPYSRASLKGYQWLKDKILSEEG [I1C] | 2.43
GPPYSRASLKGYQWLKDKILSEEG [I1G] | 2.19
TPPYSRASLKGYQWLKDKILSEEG [I1T] | 2.99
LPPYSRASLKGYQWLKDKILSEEG [I1L] | 2.08
NPPYSRASLKGYQWLKDKILSEEG [I1N] | 2.5
KPPYSRASLKGYQWLKDKILSEEG [I1K] | 2.33
APPYSRASLKGYQWLKDKILSEEG [I1A] | 2.6
